The source of these data is US12410262B2, “Peptide conjugates of cytotoxins as therapeutics” (Cybrexa 2, Inc., priority 2019, dated 2025).

One data set concerns HCT116. In words: cells. The format is cell-based, human. The note with it: 96 h. On the procedure:
Cells were plated in 96 well black walled-clear bottom plates (Griener), DLD-1 WT cells at 2500 cells per well, FaDu, and HeLa cells at 5000 cells per well, and HCT116 at 3000 cells per well, in growth media containing 10% FBS. Cells were allowed to adhere at room temperature for 60 minutes before returning to a 37 C, 5% CO2 incubator. After 24 hours, media was removed and replaced with fresh growth media containing various drug concentrations. Each drug concentration was added in triplicate. Non-drug treated controls contained growth media only. Cells were returned to the incubator. Ninety-six hours after addition of drug, cells were fixed with 4% paraformaldehyde for 20 minutes and stained with Hoechst at 1 ug/mL. The plates were imaged on a Cytation 5 auto imager (BioTek) and cells were counted using CellProfiler (http://cellprofiler.org). The percent cell growth delay was calculated and data plotted using GraphPad Prism

Data set [1] is described as follows: Glutathione cleavage study. The format is in vitro ADME. The note with it: Tris buffer with 10 mM glutathione, Glutathione Challenge (10 mM), 100 μM conjugate, Tris pH 7.5, 37° C. The protocol:
A 20 mM stock of conjugate was prepared in 100% DMSO. The stocks were subsequently diluted in 100 mM Tris, pH 7.5, to yield an intermediate dilution of 500 μM followed by an additional dilution of 1:5 in 100 mM Tris, pH 7.5 to give a final concentration of 100 μM of conjugate. 100 mM glutathione was prepared immediately prior to use in H2O and diluted 1:10 in challenge samples for a final glutathione challenge concentration of 10 mM. Samples were mixed by inversion and incubated at 37° C. for up to 24 hrs. […]
Samples were thawed and extracted as follows: 8 μL of 25% phosphoric acid followed by 117 μL of 100% acetonitrile/0.1% TFA were added to each sample, mixed and centrifuged at 13000×G for 10 minutes. The supernatant was pipetted into 0.2 mL HPLC vials and placed on a Perkin Elmer Flexar HPLC autosampler. The following table summarizes HPLC conditions:
Data was analyzed by calculating the percentage reduction of compound (area of retention time peak of […] conjugate/area of retention time peak of conjugate at time 0)×100.

A short description of the next data set: Plasma stability studies. In kind it is in vitro ADME. The following applies: rat plasma, 100 μM conjugate, 37° C. On the procedure: A 20 mM stock of conjugate was prepared in 100% DMSO. The stocks were subsequently diluted in 100 mM Tris, pH 7.5 to yield an intermediate dilution of 500 μM and then diluted 1:5 directly into rat plasma to yield a final concentration of 100 μM of conjugate. Samples were mixed by inversion and incubated at 37° C. for up to 24 h. 50 μL samples were aliquoted into siliconized microfuge tubes at time 0, 4, and 24 h and immediately frozen at −80° C.
Samples were thawed and extracted as follows: 8 μL of 25% phosphoric acid followed by 117 μL of 100% Acetonitrile/0.1% TFA was added to each sample, mixed and centrifuged at 13000×G for 10 minutes. The supernatant was pipetted into 0.2 mL HPLC vials and placed on a Perkin Elmer Flexar HPLC autosampler. The following table summarizes HPLC conditions:
Data was analyzed by calculating the percentage reduction of compound (area of retention time peak of incubated conjugate/area of retention time peak of conjugate at time 0)×100.

A word on the IC50: it is the concentration that gives 50% inhibition. `CC[C@@]1(O)C(=O)OCc2c1cc1n(c2=O)Cc2c-1nc1cc(F)c(C)c3c1c2[C@@H](NC(=O)O[C@@H]1COC[C@H]1SSC[C@H](NC(=O)[C@H](Cc1c[nH]c2ccccc12)NC(=O)[C@H](CC(C)C)NC(=O)[C@H](CC(C)C)NC(=O)[C@H](CC(=O)O)NC(=O)[C@H](CC(C)C)NC(=O)[C@H](CC(C)C)NC(=O)[C@H](CC(C)C)NC(=O)[C@@H](NC(=O)[C@H](CC(=O)O)NC(=O)[C@@H](NC(=O)[C@@H]1CCCN1C(=O)[C@H](Cc1ccccc1)NC(=O)[C@H](CC(C)C)NC(=O)[C@H](CC(C)C)NC(=O)[C@H](CC(=O)O)NC(=O)[C@H](CC(C)C)NC(=O)[C@H](Cc1ccc(O)cc1)NC(=O)[C@H](C)NC(=O)[C@H](CCCNC(=N)N)NC(=O)[C@H](Cc1c[nH]c2ccccc12)NC(=O)[C@@H]1CCCN1C(=O)[C@H](CC(N)=O)NC(=O)[C@H](CCC(N)=O)NC(=O)[C@H](CC(=O)O)NC(=O)[C@H](CC(=O)O)NC(=O)[C@H](C)N)[C@@H](C)O)[C@@H](C)O)C(=O)NCC(=O)O)CC3` [Compound 16]: the IC50 in the data set on HCT116 stood at 1.7 nM. Further, in data set [1], the fraction remaining at 4 h, 100 µM worked out at 3.4% and the fraction remaining at 24 h, 100 µM was found to be 2%. In “Plasma stability studies”, the share remaining at 4 h, 100 µM was 116% and the share remaining at 24 h, 100 µM came out at 106%.
On to `CC[C@@]1(O)C(=O)OCc2c1cc1n(c2=O)Cc2c-1nc1cc(F)c(C)c3c1c2[C@@H](NC(=O)OC[C@@H](SSC[C@H](NC(=O)[C@H](Cc1c[nH]c2ccccc12)NC(=O)[C@H](CC(C)C)NC(=O)[C@H](CC(C)C)NC(=O)[C@H](CC(=O)O)NC(=O)[C@H](CC(C)C)NC(=O)[C@H](CC(C)C)NC(=O)[C@H](CC(C)C)NC(=O)[C@@H](NC(=O)[C@H](CC(=O)O)NC(=O)[C@@H](NC(=O)[C@@H]1CCCN1C(=O)[C@H](Cc1ccccc1)NC(=O)[C@H](CC(C)C)NC(=O)[C@H](CC(C)C)NC(=O)[C@H](CC(=O)O)NC(=O)[C@H](CC(C)C)NC(=O)[C@H](Cc1ccc(O)cc1)NC(=O)[C@H](C)NC(=O)[C@H](CCCNC(=N)N)NC(=O)[C@H](Cc1c[nH]c2ccccc12)NC(=O)[C@@H]1CCCN1C(=O)[C@H](CC(N)=O)NC(=O)[C@H](CCC(N)=O)NC(=O)[C@H](CC(=O)O)NC(=O)[C@H](CC(=O)O)NC(=O)[C@H](C)N)[C@@H](C)O)[C@@H](C)O)C(=O)NCC(=O)O)C(C)C)CC3` [Compound 27], for which the IC50 in the data set with HCT116 worked out at 0.7 nM. Further, in data set [1], the share remaining at 4 h, 100 µM was found to be 18% and the fraction remaining at 24 h, 100 µM worked out at 0%. Further, in the data set “Plasma stability studies”, the amount remaining at 4 h, 100 µM is 117% and the amount remaining at 24 h, 100 µM was 109%.
For `CC[C@@]1(O)C(=O)OCc2c1cc1n(c2=O)Cc2c-1nc1cc(F)c(C)c3c1c2[C@@H](NC(=O)O[C@H]1COCC[C@@H]1SSC[C@H](NC(=O)[C@H](Cc1c[nH]c2ccccc12)NC(=O)[C@H](CC(C)C)NC(=O)[C@H](CC(C)C)NC(=O)[C@H](CC(=O)O)NC(=O)[C@H](CC(C)C)NC(=O)[C@H](CC(C)C)NC(=O)[C@H](CC(C)C)NC(=O)[C@@H](NC(=O)[C@H](CC(=O)O)NC(=O)[C@@H](NC(=O)[C@@H]1CCCN1C(=O)[C@H](Cc1ccccc1)NC(=O)[C@H](CC(C)C)NC(=O)[C@H](CC(C)C)NC(=O)[C@H](CC(=O)O)NC(=O)[C@H](CC(C)C)NC(=O)[C@H](Cc1ccc(O)cc1)NC(=O)[C@H](C)NC(=O)[C@H](CCCNC(=N)N)NC(=O)[C@H](Cc1c[nH]c2ccccc12)NC(=O)[C@@H]1CCCN1C(=O)[C@H](CC(N)=O)NC(=O)[C@H](CCC(N)=O)NC(=O)[C@H](CC(=O)O)NC(=O)[C@H](CC(=O)O)NC(=O)[C@H](C)N)[C@@H](C)O)[C@@H](C)O)C(=O)NCC(=O)O)CC3` [Compound 21] the same measures were 3.1 nM, 9.5%, 12.6%, 101% and 98.2%.
Take `CC[C@@]1(O)C(=O)OCc2c1cc1n(c2=O)Cc2c-1nc1cc(F)c(C)c3c1c2[C@@H](NC(=O)O[C@@H]1CCCCC[C@H]1SSC[C@H](NC(=O)[C@H](Cc1c[nH]c2ccccc12)NC(=O)[C@H](CC(C)C)NC(=O)[C@H](CC(C)C)NC(=O)[C@H](CC(=O)O)NC(=O)[C@H](CC(C)C)NC(=O)[C@H](CC(C)C)NC(=O)[C@H](CC(C)C)NC(=O)[C@@H](NC(=O)[C@H](CC(=O)O)NC(=O)[C@@H](NC(=O)[C@@H]1CCCN1C(=O)[C@H](Cc1ccccc1)NC(=O)[C@H](CC(C)C)NC(=O)[C@H](CC(C)C)NC(=O)[C@H](CC(=O)O)NC(=O)[C@H](CC(C)C)NC(=O)[C@H](Cc1ccc(O)cc1)NC(=O)[C@H](C)NC(=O)[C@H](CCCNC(=N)N)NC(=O)[C@H](Cc1c[nH]c2ccccc12)NC(=O)[C@@H]1CCCN1C(=O)[C@H](CC(N)=O)NC(=O)[C@H](CCC(N)=O)NC(=O)[C@H](CC(=O)O)NC(=O)[C@H](CC(=O)O)NC(=O)[C@H](C)N)[C@@H](C)O)[C@@H](C)O)C(=O)NCC(=O)O)CC3` [Compound 22]: the IC50 in the data set with HCT116 was 5.9 nM. In addition, the fraction remaining at 4 h, 100 µM in data set [1] was determined as 65.8%; in “Plasma stability studies”, 106%. Also, the share remaining at 24 h, 100 µM in data set [1] came to 12.3%; in “Plasma stability studies”, 105%.
`CC[C@@]1(O)C(=O)OCc2c1cc1n(c2=O)Cc2c-1nc1cc(F)c(C)c3c1c2[C@@H](NC(=O)O[C@H]1CCC[C@@H]1SSC[C@H](NC(=O)[C@H](Cc1c[nH]c2ccccc12)NC(=O)[C@H](CC(C)C)NC(=O)[C@H](CC(C)C)NC(=O)[C@H](CC(=O)O)NC(=O)[C@H](CC(C)C)NC(=O)[C@H](CC(C)C)NC(=O)[C@H](CC(C)C)NC(=O)[C@@H](NC(=O)[C@H](CC(=O)O)NC(=O)[C@@H](NC(=O)[C@@H]1CCCN1C(=O)[C@H](Cc1ccccc1)NC(=O)[C@H](CC(C)C)NC(=O)[C@H](CC(C)C)NC(=O)[C@H](CC(=O)O)NC(=O)[C@H](CC(C)C)NC(=O)[C@H](Cc1ccc(O)cc1)NC(=O)[C@H](C)NC(=O)[C@H](CCCNC(=N)N)NC(=O)[C@H](Cc1c[nH]c2ccccc12)NC(=O)[C@@H]1CCCN1C(=O)[C@H](CC(N)=O)NC(=O)[C@H](CCC(N)=O)NC(=O)[C@H](CC(=O)O)NC(=O)[C@H](CC(=O)O)NC(=O)[C@H](C)N)[C@@H](C)O)[C@@H](C)O)C(=O)NCC(=O)O)CC3` [Compound 15]: inhibition in the data set with HCT116 was half-maximal at 1.7 nM (IC50). In data set [1], the fraction remaining at 4 h, 100 µM was found to be 19.4% and the fraction remaining at 24 h, 100 µM was determined as 8.3%. Moreover, in the data set “Plasma stability studies”, the fraction remaining at 4 h, 100 µM came to 105% and the fraction remaining at 24 h, 100 µM is 103%.
In the case of `CC[C@@]1(O)C(=O)OCc2c1cc1n(c2=O)Cc2c-1nc1cc(F)c(C)c3c1c2[C@@H](NC(=O)O[C@H]1COC[C@@H]1SSC[C@H](NC(=O)[C@H](Cc1c[nH]c2ccccc12)NC(=O)[C@H](CC(C)C)NC(=O)[C@H](CC(C)C)NC(=O)[C@H](CC(=O)O)NC(=O)[C@H](CC(C)C)NC(=O)[C@H](CC(C)C)NC(=O)[C@H](CC(C)C)NC(=O)[C@@H](NC(=O)[C@H](CC(=O)O)NC(=O)[C@@H](NC(=O)[C@@H]1CCCN1C(=O)[C@H](Cc1ccccc1)NC(=O)[C@H](CC(C)C)NC(=O)[C@H](CC(C)C)NC(=O)[C@H](CC(=O)O)NC(=O)[C@H](CC(C)C)NC(=O)[C@H](Cc1ccc(O)cc1)NC(=O)[C@H](C)NC(=O)[C@H](CCCNC(=N)N)NC(=O)[C@H](Cc1c[nH]c2ccccc12)NC(=O)[C@@H]1CCCN1C(=O)[C@H](CC(N)=O)NC(=O)[C@H](CCC(N)=O)NC(=O)[C@H](CC(=O)O)NC(=O)[C@H](CC(=O)O)NC(=O)[C@H](C)N)[C@@H](C)O)[C@@H](C)O)C(=O)NCC(=O)O)CC3` [Compound 17], 0.7 nM corresponded to half-maximal inhibition in the data set on HCT116 (IC50). Further, in data set [1], the amount remaining at 4 h, 100 µM is 3.4% and the amount remaining at 24 h, 100 µM is 1.7%. Moreover, in “Plasma stability studies”, the amount remaining at 4 h, 100 µM amounted to 107% and the share remaining at 24 h, 100 µM amounted to 105%.
